Measured values from patent publication US20170022281A1 (AbbVie / Abbott, published 2017).
Substitutions are numbered along the chain they refer to.

B1: Ab46 (antibody, human IgG1, kappa, V domains shown)
VH: EVQLVQSGAEVKKPGASVKVSCKASGYTFTDYNIHWVRQAPGQGLEWMGYIYPNNDGTGYNQKFKSRVTMTTDTSTSTAYMELRSLRSDDTAVYYCARGDGNYVGDMDYWGQGTTVTVSS
VL: DIQMTQSPSSLSASVGDRVTITCRASENIYSYLAWYQQKPGKAPKLLVYNAKTLAEGVPSRFSGSGSGTDFTLTISSLQPEDFATYYCQHHYATPFTFGQGTKLEIKR
notes: humanized from Ab8; G1; also called Ab3 HC.1 and Ab3 LC.1b
B2: Ab45 (antibody, human IgG1, kappa, V domains shown)
VH: B1 VH
VL: B1 VL with A43P
notes: humanized from Ab8; G1; also called Ab3 HC.1 and Ab3 LC.1a
B3: Ab20 (antibody, human IgG1, kappa, V domains shown)
VH: EVQLVQSGAEVKKPGSSVKVSCKASGYTFTTYWMHWVRQAPGQGLEWIGEIDPSDSYSNYNQKFKDRATLTVDKSTSTAYMELSSLRSEDTAVYYCARNGGLGPAWFSYWGQGTLVTVSS
VL: EIVMTQSPATLSVSPGERATLSCKASQYVGTAVAWYQQKPGQAPRLLIYSASNRYTGIPARFSGSGSGTEFTLTISSLQSEDFAVYYCQQYSSYPWTFGGGTKVEIKR
notes: humanized from Ab6; G1; also called Ab1 HC.1a and Ab1 LC.2
B4: Ab28 (antibody, human IgG1, kappa)
heavy: not shown
light: DVVMTQTPLSLSVTPGQPASISCRSSQRLVHSNGNTYLHWYLQKPGQSPQLLIYKVSNRFSGVPDRFSGSGSGTDFTLKISRVEAEDVGVYYCSQSTHVPWTFGGGTKVEIKRTVAAPSVFIFPPSDEQLKSGTASVVCLLNNFYPREAKVQWKVDNALQSGNSQESVTEQDSKDSTYSLSSTLTLSKADYEKHKVYACEVTHQGLSSPVTKSFNRGEC
notes: humanized from Ab5; G1; also called Ab2 HC.1 and Ab2 LC.1b
B5: Ab35 (antibody, human IgG1, kappa)
heavy: not shown
light: B4 light with V2I, R28S, W101F
notes: humanized from Ab7; G1; also called Ab4 HC.1 and Ab4 LC.1
B6: Ab38 (antibody, human IgG1, kappa)
heavy: not shown
light: B4 light with V2I, R28S, W101F
notes: humanized from Ab7; G1; also called Ab4 HC.1a and Ab4 LC.1
B7: Ab26 (antibody, human IgG1, kappa)
heavy: not shown
light: B4 light with V2I
notes: humanized from Ab5; G1; also called Ab HC.1 and Ab2 LC.1
B8: Ab37 (antibody, human IgG1, kappa)
heavy: not shown
light: B4 light with R28S, W101F
notes: humanized from Ab7; G1; also called Ab4 HC.1 and Ab4 LC.1b

How the values were obtained:
[1] = biological target: cyno PRLR on Baf3-cyPRLR cells (cyno); assay: cell-based or functional assay
[2] = biological target: T1, mouse PRLR on Baf3-mPRLR cells (mouse, UniProt Q08501 20-608); assay: cell-based or functional assay
T1 sequence (looked up): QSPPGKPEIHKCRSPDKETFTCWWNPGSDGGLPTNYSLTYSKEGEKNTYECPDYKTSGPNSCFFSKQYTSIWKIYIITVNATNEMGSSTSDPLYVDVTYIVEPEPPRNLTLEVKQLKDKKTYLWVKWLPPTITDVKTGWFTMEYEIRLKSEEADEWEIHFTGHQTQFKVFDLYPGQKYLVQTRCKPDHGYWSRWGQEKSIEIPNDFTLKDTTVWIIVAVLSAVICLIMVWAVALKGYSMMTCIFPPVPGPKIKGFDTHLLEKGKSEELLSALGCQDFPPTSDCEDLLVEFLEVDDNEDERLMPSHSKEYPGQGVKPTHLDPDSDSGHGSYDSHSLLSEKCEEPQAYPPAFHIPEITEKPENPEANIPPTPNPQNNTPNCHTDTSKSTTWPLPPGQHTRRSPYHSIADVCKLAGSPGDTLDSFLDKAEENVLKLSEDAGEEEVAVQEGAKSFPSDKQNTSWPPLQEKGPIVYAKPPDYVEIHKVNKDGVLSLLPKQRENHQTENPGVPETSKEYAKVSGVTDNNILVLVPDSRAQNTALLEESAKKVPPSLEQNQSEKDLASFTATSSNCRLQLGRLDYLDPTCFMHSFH

[3] = biological target: T2, human PRLR on cells (human, UniProt P16471 25-622); assay: cell-based or functional assay
T2 sequence: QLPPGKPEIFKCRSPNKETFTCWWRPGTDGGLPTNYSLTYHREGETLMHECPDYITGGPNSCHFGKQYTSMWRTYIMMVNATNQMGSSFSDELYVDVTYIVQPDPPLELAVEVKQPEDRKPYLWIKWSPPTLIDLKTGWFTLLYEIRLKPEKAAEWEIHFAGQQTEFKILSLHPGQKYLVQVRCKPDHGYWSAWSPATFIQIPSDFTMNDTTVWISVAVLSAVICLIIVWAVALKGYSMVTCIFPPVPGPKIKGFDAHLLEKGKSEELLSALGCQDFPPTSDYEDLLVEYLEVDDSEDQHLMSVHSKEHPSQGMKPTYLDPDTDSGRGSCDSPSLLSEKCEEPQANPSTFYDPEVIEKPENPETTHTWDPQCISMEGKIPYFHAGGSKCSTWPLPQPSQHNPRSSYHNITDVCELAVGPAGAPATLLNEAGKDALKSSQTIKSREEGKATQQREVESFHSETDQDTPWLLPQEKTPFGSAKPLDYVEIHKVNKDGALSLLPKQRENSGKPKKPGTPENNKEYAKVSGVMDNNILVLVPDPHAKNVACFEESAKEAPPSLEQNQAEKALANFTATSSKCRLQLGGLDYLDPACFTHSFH

[4] = biological target: T3, mouse PRLR ECD-Fc fusion protein (mouse, UniProt Q08501 20-229); assay: ELISA on ECD
T3 construct: extracellular domain; not shown: Fc region (captured by goat anti-human Fc)
T3 sequence (looked up): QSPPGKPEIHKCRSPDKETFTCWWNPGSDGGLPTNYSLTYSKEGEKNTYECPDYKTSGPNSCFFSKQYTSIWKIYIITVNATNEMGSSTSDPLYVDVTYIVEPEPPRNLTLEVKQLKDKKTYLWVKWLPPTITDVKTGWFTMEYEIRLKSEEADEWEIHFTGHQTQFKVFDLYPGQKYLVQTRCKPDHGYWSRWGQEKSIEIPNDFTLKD
Description: (§1) Plates were blocked for 1 hour with Superblock (Pierce) and washed (3×) with wash buffer (lx PBS (pH 7.4), 0.05% Tween 20). ECD proteins were bound to the appropriate antibody (1 hour) in binding buffer (wash buffer plus 10% Superblock), washed (3×, wash buffer), and then incubated with serial dilutions of antibodies (1 hour) in binding buffer. After washing (3×, wash buffer), secondary antibodies conjugated to HRP were bound (1 hour) in binding buffer, washed (3×, wash buffer), and incubated with TMB substrate (Pierce) to develop signal for 3-5 minutes, stopped with 2N H₂SO₄ and scanned at […]. Curves were fit with GraphPad 5 (Prizm) and EC50's were determined with curve fitting function of GraphPad 5.

[5] = biological target: T4, cyno PRLR ECD-his6 protein (cyno); assay: ELISA on ECD
T4 chain: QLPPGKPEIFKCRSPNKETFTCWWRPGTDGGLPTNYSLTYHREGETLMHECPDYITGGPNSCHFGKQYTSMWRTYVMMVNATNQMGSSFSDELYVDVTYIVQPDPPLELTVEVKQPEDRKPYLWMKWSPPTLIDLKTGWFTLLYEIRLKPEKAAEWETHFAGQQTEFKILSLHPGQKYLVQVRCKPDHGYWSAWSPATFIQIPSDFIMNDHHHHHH
Description: as §1

[6] = biological target: T5, human PRLR ECD-Fc fusion protein (human, UniProt P16471 25-233); assay: ELISA on ECD
T5 construct: not shown: Fc region (captured by goat anti-human Fc)
T5 sequence: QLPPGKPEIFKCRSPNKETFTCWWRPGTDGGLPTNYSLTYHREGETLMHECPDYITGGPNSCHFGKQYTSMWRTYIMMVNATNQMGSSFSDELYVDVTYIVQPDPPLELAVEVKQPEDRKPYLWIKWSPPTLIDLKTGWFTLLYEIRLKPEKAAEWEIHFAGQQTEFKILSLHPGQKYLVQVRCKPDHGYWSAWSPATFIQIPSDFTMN
Description: as §1

[7] = biological target: T6, human PRLR (Biacore antigen) (human, UniProt P16471 25-234, limits assumed); assay: SPR Biacore
T6 construct: The construct injected over captured antibody is not described (a soluble form is likely); also called huPRLR
T6 sequence: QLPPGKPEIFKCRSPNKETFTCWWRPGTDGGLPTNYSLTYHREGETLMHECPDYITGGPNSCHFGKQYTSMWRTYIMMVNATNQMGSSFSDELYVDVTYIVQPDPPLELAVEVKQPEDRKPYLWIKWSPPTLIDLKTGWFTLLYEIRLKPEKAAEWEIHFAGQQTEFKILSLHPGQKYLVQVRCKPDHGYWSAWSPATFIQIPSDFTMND
Procedure, shortened: (§2)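 Association rate, dissociation rate and dissociation constant were measured by surface plasmon resonance on a Biacore instrument. PRLR antigen was tested at 600 nM, 66.67 nM and 7.41 nM, a 3-point, 9-fold dilution series. Constants came from a 1:1 binding model fit (local Rmax, mass-transport term included) in Biacore T200 Evaluation Software.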

[8] = biological target: T7, murine PRLR (Biacore antigen) (murine, UniProt Q08501 20-229, limits assumed); assay: SPR Biacore
T7 construct: also called muPRLR
T7 sequence (looked up): T3 sequence (looked up)
Procedure, shortened: as §2

[9] = biological target: T8, cyno PRLR (Biacore antigen) (cyno, UniProt A0A2K5WXK1 25-234); assay: SPR Biacore
T8 construct: also called cyPRLR
T8 sequence: T4 chain
Procedure, shortened: as §2

[10] = biological target: T9, rat PRLR ECD-Fc fusion protein (rat, UniProt P05710 20-229); assay: ELISA on ECD
T9 construct: extracellular domain; not shown: Fc region (captured by goat anti-human Fc)
T9 sequence (looked up): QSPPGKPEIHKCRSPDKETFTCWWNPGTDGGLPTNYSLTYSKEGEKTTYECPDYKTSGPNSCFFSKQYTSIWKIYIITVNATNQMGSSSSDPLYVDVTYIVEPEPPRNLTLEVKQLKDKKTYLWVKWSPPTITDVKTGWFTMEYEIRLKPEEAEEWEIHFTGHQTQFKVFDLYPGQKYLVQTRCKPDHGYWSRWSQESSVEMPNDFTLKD
Description: as §1

Row | Binder | Baf3-cyPRLR proliferation IC50 [1] [µg/mL] | Baf3-mPRLR proliferation IC50 [2] [µg/mL] | Baf3-hPRLR proliferation IC50 [3] [µg/mL] | EC50 [4] [nM] | EC50 [5] [nM] | EC50 [6] [nM] | Kd [7] [nM] | koff [7] [s⁻¹] | kon [7] [M⁻¹ s⁻¹] | Kd [8] [nM] | Kd [9] [nM] | koff [9] [s⁻¹] | kon [9] [M⁻¹ s⁻¹] | koff [8] [s⁻¹] | kon [8] [M⁻¹ s⁻¹] | EC50 [10] [nM]
1 | B1 | 1.72 | > 30 | 0.3 | 0.568 | 0.0814 | 0.0626 |  |  |  |  |  |  |  |  |  | 
2 | B2 | 2.24 | > 30 | 0.31 | 0.978 | 0.201 | 0.0684 |  |  |  |  |  |  |  |  |  | 
3 | B3 | 0.5 | > 30 | 0.2 |  | 0.0711 | 0.0836 | 2 | 0.00208 | 1.04e+06 | 620 |  |  |  |  |  | 
4 | B4 | 0.31 |  | 0.22 | 0.292 | 0.0965 |  |  |  |  | 52 | 1.97 | 0.000619 | 315000 | 0.00606 | 117000 | 0.416
5 | B5 | 0.65 | > 30 | 0.38 |  | 0.32 | 2.5 | 13.3 | 0.0016 | 120000 | 1580 | 13.5 | 0.00142 | 105000 | 0.0785 | 49800 | 
6 | B6 | 0.25 | > 30 | 0.42 |  | 0.264 | 0.346 | 6.22 | 0.000879 | 141000 | 994 | 6.04 | 0.000756 | 125000 | 0.0527 | 53000 | 
7 | B7 | 0.25 |  | 0.23 | 0.201 | 0.151 |  |  |  |  |  |  |  |  |  |  | 0.164
8 | B8 | 0.44 | > 30 | 0.43 |  | 0.186 | 0.184 | 12.3 | 0.00146 | 119000 | 1670 | 12.3 | 0.00132 | 107000 | 0.0687 | 41100 | 
